In the supplement of paper PMC7877785:
± gives the uncertainty stated by the source.

Assay: self-splicing fitness, log relative to wild type (ln ratio); higher = more splicing; Tetrahymena group I intron in knt gene, E. coli kanamycin selection, DiMSum; sequences stand for … in CUCUCU…GGAGGGAAAAGUUAUCAGGCAUGCACCUGGUAGCUAGUCUUUAAACCAAUAGAUUGCAUCGGUUUAAAAGGCAAGACCGUCAAAUUGCGGGAAAGGGGUCAACAGCCGUUCAGUACCAAGUCUCAGGGGAAACUUUGAGAUGGCCUUGCAAAGGGUAUGGUAAUAAGCUGACGGACAUGGUCCUAACCACGCAGCCAAGUCCUAAGUCAACAGAUCUUCUGUUGAUAUGGAUGCAGUUCACAGACUAAAUGUCGGUCGGGGAAGAUGUAUUCUUCUCAUAAGAUAUAGUCGGACCUCUCCUUAAUGGGAGCUAGCGGAUGAAGUGAUGCAACACUGGAGCCGCUGGGAACUAAUUUGUAUGCGAAAGUAUAUUGAUUAGUUUUGGAGUACUCGUGGUCG
Outline: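 The eight P1ex-region nucleotides of an intron in the knt kanamycin-resistance gene on pET-22b(+) were all randomised and the library put into E. coli BL21(DE3). Six replicate transformations were grown overnight at 37°C or 30°C on LB agar with or without 25 μg/mL kanamycin, together with 100 μg/mL carbenicillin, 50 μM IPTG and 0.2% rhamnose. Colonies were pooled and amplicon-sequenced on an Illumina HiSeq 2500. Fitness from DiMSum is the error-weighted combination of wild-type-normalised replicate fold changes, kanamycin over none.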

Sequence	self-splicing fitness (ln) (30 °C)	self-splicing fitness (ln) (37 °C)
CGACAGCAAUAUUACGAUGU	-2.74 ± 0.15	-2.59 ± 0.18
CGACAGCAAUAUUACGCCCC	-1.19 ± 0.16	0.564 ± 0.24
CGACAGCAAUAUUACGCGAC	–	-2.98 ± 0.26
CGACAGCAAUAUUACGGAAU	-2.5 ± 0.24	-2.54 ± 0.26
CGACAGCAAUAUUACGGAUA	-2.09 ± 0.14	-1.91 ± 0.15
CGACAGCAAUAUUACGGAUG	-0.977 ± 0.051	-0.0449 ± 0.059
CGACAGCAAUAUUACGGAUU	-3.77 ± 0.17	-1.73 ± 0.099
CGACAGCAAUAUUACGGCCC	-0.607 ± 0.19	-0.549 ± 0.24
CGACAGCAAUAUUACGGCUA	-2.5 ± 0.2	-1.39 ± 0.14
CGACAGCAAUAUUACGGGAU	-3.98 ± 0.18	-2.52 ± 0.19
CGACAGCAAUAUUACGGGCC	-2.97 ± 0.17	-2.43 ± 0.23
CGACAGCAAUAUUACGUCUU	-0.458 ± 0.066	-0.212 ± 0.073
CGACAGCAAUAUUACGUGGC	-3.68 ± 0.28	-3.29 ± 0.26
CGACAGCAAUAUUACGUUUC	-3.98 ± 0.24	-2.23 ± 0.15
CGAGAGCAAUAUUACGAAAG	-3.64 ± 0.4	-1.55 ± 0.31
CGAGAGCAAUAUUACGACUG	-1.29 ± 0.15	-0.27 ± 0.19
CGAGAGCAAUAUUACGAUAA	-4.29 ± 0.46	-2.37 ± 0.45
CGAGAGCAAUAUUACGAUUU	-1.8 ± 0.33	-2.17 ± 0.37
CGAGAGCAAUAUUACGCCAA	-1.49 ± 0.2	-1.99 ± 0.38
CGAGAGCAAUAUUACGCCGG	-2.74 ± 0.41	-1.27 ± 0.45
CGAGAGCAAUAUUACGCGCU	-2.04 ± 0.38	–
CGAGAGCAAUAUUACGCGGC	–	-1.9 ± 0.41
CGAGAGCAAUAUUACGCUUA	-2.49 ± 0.23	-2.13 ± 0.46
CGAGAGCAAUAUUACGCUUU	–	-2.33 ± 0.39
CGAGAGCAAUAUUACGGAGU	-4.55 ± 0.42	-1.6 ± 0.2

Sequence	self-splicing fitness (ln) (30 °C)	self-splicing fitness (ln) (37 °C)
CGAGAGCAAUAUUACGGGAA	-1.44 ± 0.33	-1.71 ± 0.44
CGAGAGCAAUAUUACGGUGG	-1.72 ± 0.34	-2.24 ± 0.34
CGAGAGCAAUAUUACGGUUU	-3.15 ± 0.15	-2.58 ± 0.21
CGAGAGCAAUAUUACGUACG	-3.14 ± 0.17	-2.28 ± 0.29
CGAGAGCAAUAUUACGUCUG	-1.33 ± 0.24	-1.31 ± 0.17
CGAGAGCAAUAUUACGUGAU	-4.24 ± 0.24	-2.58 ± 0.2
CGAGAGCAAUAUUACGUGCU	-4.22 ± 0.46	–
CGAUAGCAAUAUUACGAAUG	-0.898 ± 0.082	0.443 ± 0.11
CGAUAGCAAUAUUACGACAG	0.215 ± 0.1	0.719 ± 0.12
CGAUAGCAAUAUUACGACCC	-2.33 ± 0.44	–
CGAUAGCAAUAUUACGAGCU	-3.42 ± 0.4	-3.09 ± 0.35
CGAUAGCAAUAUUACGAGGG	-2.4 ± 0.15	-2.14 ± 0.26
CGAUAGCAAUAUUACGAGUU	-3.61 ± 0.24	-2.28 ± 0.23
CGAUAGCAAUAUUACGAUUG	-2.27 ± 0.12	-1.2 ± 0.12
CGAUAGCAAUAUUACGCAAA	-2.98 ± 0.29	-1.92 ± 0.15
CGAUAGCAAUAUUACGCAGU	-2.96 ± 0.19	-2.48 ± 0.19
CGAUAGCAAUAUUACGCCUC	-2.84 ± 0.24	-1.74 ± 0.26
CGAUAGCAAUAUUACGGAAG	-1.53 ± 0.083	-0.509 ± 0.11
CGAUAGCAAUAUUACGGAGC	-3.91 ± 0.4	-1.63 ± 0.3
CGAUAGCAAUAUUACGGCAU	-2.85 ± 0.21	-2.54 ± 0.26
CGAUAGCAAUAUUACGGGGU	-3.87 ± 0.19	-3.11 ± 0.32
CGAUAGCAAUAUUACGGUAG	-1.41 ± 0.11	-0.461 ± 0.11
CGAUAGCAAUAUUACGUAUG	-1.22 ± 0.071	-0.164 ± 0.096
CGCAAGCAAUAUUACGAAAC	-3.46 ± 0.37	-0.979 ± 0.12
CGCAAGCAAUAUUACGAACU	-0.966 ± 0.065	-0.369 ± 0.076
